Measurements: patent US8187596 (SCHERING, dated 2012)

B3: recombinant his6-tagged murine IL-1RAcP (receptor, UniProt Q61730 21-367, looked up)
chain: SERCDDWGLDTMRQIQVFEDEPARIKCPLFEHFLKYNYSTAHSSGLTLIWYWTRQDRDLEEPINFRLPENRISKEKDVLWFRPTLLNDTGNYTCMLRNTTYCSKVAFPLEVVQKDSCFNSAMRFPVHKMYIEHGIHKITCPNVDGYFPSSVKPSVTWYKGCTEIVDFHNVLPEGMNLSFFIPLVSNNGNYTCVVTYPENGRLFHLTRTVTVKVVGSPKDALPPQIYSPNDRVVYEKEPGEELVIPCKVYFSFIMDSHNEVWWTIDGKKPDDVTVDITINESVSYSSTEDETRTQILSIKKVTPEDLRRNYVCHARNTKGEAEQAAKVKQKVIPPRYTVELACGFGAT
notes: Described only as soluble, recombinant and his6-tagged; also called soluble his6-tagged murine IL-1RAcP; his6-tagged IL-1RAcP; not shown: his6 tag

Legend:
[1] = biological target: B3; test: not described (data not shown)
[2] = biological target: T1, murine IL-1R1-Fc fusion protein (R&D Systems) (murine, UniProt P13504 20-338, limits assumed); test: receptor-ligand complex ELISA: IL-1β titrated onto coated IL-1R1-Fc with his6-IL-1RAcP present; the readout is captured his6-IL-1RAcP (ternary complex)
T1 construct: Bought reagent (R&D Systems), coated on the plate at 3 ug/ml; not shown: Fc part of the bought fusion protein
T1 sequence (looked up): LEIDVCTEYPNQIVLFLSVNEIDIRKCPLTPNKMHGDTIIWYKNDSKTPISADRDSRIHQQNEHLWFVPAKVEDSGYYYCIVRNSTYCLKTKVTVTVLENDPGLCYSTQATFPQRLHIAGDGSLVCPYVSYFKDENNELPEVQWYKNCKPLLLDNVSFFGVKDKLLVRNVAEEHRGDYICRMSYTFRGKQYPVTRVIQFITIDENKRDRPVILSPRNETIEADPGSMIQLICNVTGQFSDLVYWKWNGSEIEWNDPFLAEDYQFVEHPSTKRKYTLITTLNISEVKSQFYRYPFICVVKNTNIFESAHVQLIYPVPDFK
Protocol: (§1) Murine IL-1β or IL-33 was titrated into plates containing soluble his6-tagged murine IL-1RAcP and plate-bound ST2-Fc (FIG. 8A) or IL-1R1-Fc (FIG. 8B). Peroxidase-conjugated anti-his6 was used as a detection antibody. Data is representative of 2 experiments. Data represent the mean+/-SEM of duplicate wells.
(§2) Receptor-ligand complex ELISA: 3 µg/mlmurine ST2-Fc or IL-1R1-Fc fusion proteins (R&D Systems) in PBS were coated overnight onto MaxiSorp plates (Nunc). After washing, plates were incubated with 3 µg/ml recombinant his6-tagged murine IL-1RAcP and increasing concentrations of murine IL-33 or IL-1β in PBS/1% bovine serum albumin/ 0.05% Tween-20® polyoxyethylene sorbitan monolaurate for 1.5 hours. Plates were washed and incubated with anti-his6-peroxidase (Roche Diagnostics) for 1 hour, washed again, developed with TMB Peroxidase substrate (KPL), stopped with […], and read on a plate reader at 450-570 nm.

[3] = biological target: T2, complex of plate-bound murine IL-1R1-Fc and murine IL-1β (murine, UniProt P13504 20-338; P10749 118-269, limits assumed); test: receptor-ligand complex ELISA: IL-1R1-Fc coated, his6-IL-1RAcP 3 ug/ml in solution, IL-1β titrated, anti-his6-peroxidase detection
T2 construct: Formed in the ELISA well from coated IL-1R1-Fc and titrated IL-1β; It is the partner that captures his6-IL-1RAcP; also called IL-1/IL-1R1 complex; not shown: Fc part of the bought fusion protein
T2 sequence (looked up) 1: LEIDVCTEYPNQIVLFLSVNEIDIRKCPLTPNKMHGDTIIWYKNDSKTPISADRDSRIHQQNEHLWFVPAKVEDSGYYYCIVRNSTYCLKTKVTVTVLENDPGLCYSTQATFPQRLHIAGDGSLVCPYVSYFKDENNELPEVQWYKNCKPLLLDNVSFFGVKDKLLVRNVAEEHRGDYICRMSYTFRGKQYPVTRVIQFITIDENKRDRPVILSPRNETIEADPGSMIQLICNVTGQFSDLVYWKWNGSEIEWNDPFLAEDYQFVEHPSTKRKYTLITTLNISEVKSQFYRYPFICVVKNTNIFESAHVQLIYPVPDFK
T2 sequence (looked up) 2: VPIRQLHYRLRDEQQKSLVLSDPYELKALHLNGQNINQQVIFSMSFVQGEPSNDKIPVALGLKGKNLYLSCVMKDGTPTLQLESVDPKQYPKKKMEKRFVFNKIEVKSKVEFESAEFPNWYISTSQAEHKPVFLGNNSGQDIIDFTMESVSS
Protocol: as §1, §2

B1: murine IL-33 (ligand, UniProt Q8BVZ5 109-266, looked up)
chain: SIQGTSLLTQSPASLSTYNDQSVSFVLENGCYVINVDDSGKDQEQDQVLLRYYESPCPASQSGDGVDGKKLMVNMSPIKDTDIWLHANDKDYSVELQRGDVSPPEQAFFVLHKKSSDFVSFECKNLPGTYIGVKDNQLALVEEKDESCNNIMFKLSKI
notes: also called mouse IL-33
binding result [1]: no binding

B2: murine IL-1β (ligand, UniProt P10749 118-269, looked up)
chain: VPIRQLHYRLRDEQQKSLVLSDPYELKALHLNGQNINQQVIFSMSFVQGEPSNDKIPVALGLKGKNLYLSCVMKDGTPTLQLESVDPKQYPKKKMEKRFVFNKIEVKSKVEFESAEFPNWYISTSQAEHKPVFLGNNSGQDIIDFTMESVSS
notes: also called mouse IL-1β
binding result [2]: binds

B3
binding result [3]: binds
